In patent publication US20150344570A1 (published 2015):
Like-named read-outs stand apart in the source and are kept apart here.

T1: FcγRIIb extracellular domain with C-terminal His tag (human, UniProt P31994 43-217)
T1 construct: extracellular domain; Soluble receptor used as analyte in Biacore; also called FcgRIIb
T1 sequence (looked up): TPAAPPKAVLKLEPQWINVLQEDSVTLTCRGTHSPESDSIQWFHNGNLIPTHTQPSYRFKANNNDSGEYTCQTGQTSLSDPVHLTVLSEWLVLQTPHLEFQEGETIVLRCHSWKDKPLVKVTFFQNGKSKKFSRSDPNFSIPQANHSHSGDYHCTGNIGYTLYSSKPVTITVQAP

T2: FcγRIIa H (FcγRIIa type H, His at position 131), extracellular domain with C-terminal His tag (human, UniProt P12318 34-217)
T2 construct: extracellular domain; expressed in FreeStyle293 cells; also called FcgRIIa H; 2aH; not shown: His tag attached to the C terminus
T2 sequence (looked up): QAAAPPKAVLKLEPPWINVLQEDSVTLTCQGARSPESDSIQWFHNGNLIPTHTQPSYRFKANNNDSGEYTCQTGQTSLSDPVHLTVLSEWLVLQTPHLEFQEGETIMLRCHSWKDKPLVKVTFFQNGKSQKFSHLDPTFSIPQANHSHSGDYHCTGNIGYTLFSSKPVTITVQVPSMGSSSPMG

T3: FcγRIIb, extracellular domain with C-terminal His tag (human, UniProt P31994 43-217)
T3 construct: extracellular domain; expressed in FreeStyle293 cells; also called FcgRIIb; 2b; not shown: His tag attached to the C terminus
T3 sequence (looked up): T1 sequence (looked up)

B1: GpH7-A5/GpH7-B3 variant I332_02A/GpL16-k0 (antibody, human IgG1, kappa)
heavy 1: not shown
heavy 2: not shown
light: DIVMTQSPLSLPVTPGEPASISCQASESLVHSNRNTYLHWYLQKPGQSPQLLIYKVSNRFSGVPDRFSGSGSGTDFTLKISRVEAEDVGVYYCSQNTHVPPTFGQGTKVEIERTVAAPSVFIFPPSDEQLKSGTASVVCLLNNFYPREAKVQWKVDNALQSGNSQESVTEQDSKDSTYSLSSTLTLSKADYEKHKVYACEVTHQGLSSPVTKSFNRGEC
notes: Heterodimerized IgG1, mutation in the GpH7-B3 chain only; also called He Ab
B2: GpH7-A5/GpH7-B3 variant P238_07I/GpL16-k0 (antibody, human IgG1, kappa)
heavy 1: not shown
heavy 2: not shown
light: B1 light
notes: Heterodimerized antibody (He Ab): mutation in the GpH7-B3 chain only; also called He Ab
B3: GpH7-A5/GpH7-B3 variant I332_06M/GpL16-k0 (antibody, human IgG1, kappa)
heavy 1: not shown
heavy 2: not shown
light: B1 light
notes: as for B1
B4: GpH7-A5/GpH7-B3 variant K326_14T/GpL16-k0 (antibody, human IgG1, kappa)
heavy 1: not shown
heavy 2: not shown
light: B1 light
notes: as for B1
B5: GpH7-A5/GpH7-B3 variant I332_14T/GpL16-k0 (antibody, human IgG1, kappa)
heavy 1: not shown
heavy 2: not shown
light: B1 light
notes: as for B1
B6: GpH7-A5/GpH7-B3 variant P238_14T/GpL16-k0 (antibody, human IgG1, kappa)
heavy 1: not shown
heavy 2: not shown
light: B1 light
notes: as for B2
B7: GpH7-A5/GpH7-B3 variant P238_16H/GpL16-k0 (antibody, human IgG1, kappa)
heavy 1: not shown
heavy 2: not shown
light: B1 light
notes: as for B2
B8: GpH7-A5/GpH7-B3 variant S267_09D/GpL16-k0 (antibody, human IgG1, kappa)
heavy 1: not shown
heavy 2: not shown
light: B1 light
notes: as for B1
B9: GpH7-A5/GpH7-B3 variant V266_12R/GpL16-k0 (antibody, human IgG1, kappa)
heavy 1: not shown
heavy 2: not shown
light: B1 light
notes: as for B1
B10: GpH7-A5/GpH7-B3 variant I332_04F/GpL16-k0 (antibody, human IgG1, kappa)
heavy 1: not shown
heavy 2: not shown
light: B1 light
notes: as for B1
B11: GpH7-A5/GpH7-B3 variant P238_10E/GpL16-k0 (antibody, human IgG1, kappa)
heavy 1: not shown
heavy 2: not shown
light: B1 light
notes: as for B2
B12: GpH7-A5/GpH7-B3 variant S267_02A/GpL16-k0 (antibody, human IgG1, kappa)
heavy 1: not shown
heavy 2: not shown
light: B1 light
notes: as for B1
B13: GpH7-A5/GpH7-B3 variant P271_01G/GpL16-k0 (antibody, human IgG1, kappa)
heavy 1: not shown
heavy 2: not shown
light: B1 light
notes: as for B1
B14: GpH7-A5/GpH7-B3 variant P238_15Y/GpL16-k0 (antibody, human IgG1, kappa)
heavy 1: not shown
heavy 2: not shown
light: B1 light
notes: as for B2
B15: GpH7-A5/GpH7-B3 variant P238_13S/GpL16-k0 (antibody, human IgG1, kappa)
heavy 1: not shown
heavy 2: not shown
light: B1 light
notes: as for B2
B16: GpH7-A5/GpH7-B3 variant P238_08L/GpL16-k0 (antibody, human IgG1, kappa)
heavy 1: not shown
heavy 2: not shown
light: B1 light
notes: as for B2
B17: GpH7-A5/GpH7-B3 variant K326_15Y/GpL16-k0 (antibody, human IgG1, kappa)
heavy 1: not shown
heavy 2: not shown
light: B1 light
notes: as for B1
B18: GpH7-A5/GpH7-B3 variant V266_08L/GpL16-k0 (antibody, human IgG1, kappa)
heavy 1: not shown
heavy 2: not shown
light: B1 light
notes: as for B1
B19: GpH7-A5/GpH7-B3 variant S267_19Q/GpL16-k0 (antibody, human IgG1, kappa)
heavy 1: not shown
heavy 2: not shown
light: B1 light
notes: as for B1
B20: GpH7-A5/GpH7-B3 variant P331_20W/GpL16-k0 (antibody, human IgG1, kappa)
heavy 1: not shown
heavy 2: not shown
light: B1 light
notes: as for B1
B21: GpH7-A5/GpH7-B3 variant K326_08L/GpL16-k0 (antibody, human IgG1, kappa)
heavy 1: not shown
heavy 2: not shown
light: B1 light
notes: as for B1
B22: GpH7-A5/GpH7-B3 variant S267_07I/GpL16-k0 (antibody, human IgG1, kappa)
heavy 1: not shown
heavy 2: not shown
light: B1 light
notes: as for B1
B23: GpH7-A5/GpH7-B3 variant V266_07I/GpL16-k0 (antibody, human IgG1, kappa)
heavy 1: not shown
heavy 2: not shown
light: B1 light
notes: as for B1
B24: GpH7-A5/GpH7-B3 variant S267_06M/GpL16-k0 (antibody, human IgG1, kappa)
heavy 1: not shown
heavy 2: not shown
light: B1 light
notes: as for B1
B25: GpH7-A5/GpH7-B3 variant S267_10E/GpL16-k0 (antibody, human IgG1, kappa)
heavy 1: not shown
heavy 2: not shown
light: B1 light
notes: as for B1
B26: GpH7-A5/GpH7-B3 variant P238_09D/GpL16-k0 (antibody, human IgG1, kappa)
heavy 1: not shown
heavy 2: not shown
light: B1 light
notes: as for B2
B27: GpH7-A5/GpH7-B3 variant K326_10E/GpL16-k0 (antibody, human IgG1, kappa)
heavy 1: not shown
heavy 2: not shown
light: B1 light
notes: as for B1
B28: GpH7-A5/GpH7-B3 variant I332_15Y/GpL16-k0 (antibody, human IgG1, kappa)
heavy 1: not shown
heavy 2: not shown
light: B1 light
notes: as for B1
B29: GpH7-A5/GpH7-B3 variant S267_03V/GpL16-k0 (antibody, human IgG1, kappa)
heavy 1: not shown
heavy 2: not shown
light: B1 light
notes: as for B1
B30: GpH7-A5/GpH7-B3 variant K326_19Q/GpL16-k0 (antibody, human IgG1, kappa)
heavy 1: not shown
heavy 2: not shown
light: B1 light
notes: as for B1
B31: GpH7-A5/GpH7-B3 variant K326_20W/GpL16-k0 (antibody, human IgG1, kappa)
heavy 1: not shown
heavy 2: not shown
light: B1 light
notes: as for B1
B32: GpH7-A5/GpH7-B3 variant K326_09D/GpL16-k0 (antibody, human IgG1, kappa)
heavy 1: not shown
heavy 2: not shown
light: B1 light
notes: as for B1

Key:
[1] = target: T1, FcγRIIb extracellular domain with …; assay: SPR (Biacore), antibody captured, FcγR as analyte; binding relative to GpH7-A5/GpH7-B3/GpL16-k0 = 100
[2] = target: T4, FcγRIa extracellular domain with C-terminal His tag (human, UniProt P12314 16-292); assay: as above
T4 construct: extracellular domain; Soluble receptor used as analyte in Biacore; also called FcgRI

[3] = target: T2, FcγRIIa H (FcγRIIa type H, His at …); assay: SPR (Biacore), antibody captured on antigen peptide chip, FcγR as analyte; relative to GpH7-A5/GpH7-B3/GpL16-k0 = 100
[4] = target: T3, FcγRIIb, extracellular domain with …; assay: as above
[5] = target: T2, FcγRIIa H (FcγRIIa type H, His at …); assay: SPR (Biacore); He/Con_2aH divided by He/Con_2b (FcγRIIa H against FcγRIIb)
[6] = target: T4, FcγRIa extracellular domain with …; assay: ratio He/Con_1a : He/Con_2b (FcγRIa over FcγRIIb), SPR (Biacore)
[7] = target: T1, FcγRIIb extracellular domain with …; assay: SPR (Biacore), antibody captured, FcγR as analyte; binding relative to GpH7-A5/GpH7-B3/GpL16-k0 = 100; remark: listed apart in the source
[8] = target: T4, FcγRIa extracellular domain with …; assay: as above; remark: listed apart in the source

T4 sequence (P12314 16-292): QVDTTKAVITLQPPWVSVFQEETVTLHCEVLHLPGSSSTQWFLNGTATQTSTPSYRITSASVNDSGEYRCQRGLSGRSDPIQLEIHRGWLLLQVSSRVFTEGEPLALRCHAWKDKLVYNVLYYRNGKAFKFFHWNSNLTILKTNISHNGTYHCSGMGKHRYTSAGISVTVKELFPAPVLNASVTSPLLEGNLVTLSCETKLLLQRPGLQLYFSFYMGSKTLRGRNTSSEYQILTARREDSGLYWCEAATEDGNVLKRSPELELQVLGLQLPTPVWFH

Binder | He/Con_2b [1] [control = 100] | He/Con_1a [2] [control = 100] | He/Con_2aH (relative binding activity) [3] | He/Con_2b (relative binding activity) [4] | He_2aH/2b (IIaH/IIb) [5] [ratio] | He_1a/2b (Ia/IIb) [6] | He/Con_2b [7] [control = 100] | He/Con_1a [8] [control = 100]
B1 | 103 | 88.3 | – | – | – | – | – | –
B2 | – | – | 57.6 % of HeCon Ab (= 100) | 80 % of HeCon Ab (= 100) | 0.72 | – | – | –
B3 | 105 | 92.3 | – | – | – | – | – | –
B4 | – | – | – | – | – | 0.7 | 150 | 104
B5 | 106 | 91.8 | – | – | – | – | – | –
B6 | – | – | 37.7 % of HeCon Ab (= 100) | 50.7 % of HeCon Ab (= 100) | 0.74 | – | – | –
B7 | – | – | 45.9 % of HeCon Ab (= 100) | 115 % of HeCon Ab (= 100) | 0.4 | – | – | –
B8 | – | – | – | – | – | 0.35 | 310 | 110
B9 | – | – | – | – | – | -55.6 | -1.1 | 59.2
B10 | 104 | 93.6 | – | – | – | – | – | –
B11 | – | – | 77.1 % of HeCon Ab (= 100) | 232 % of HeCon Ab (= 100) | 0.33 | – | – | –
B12 | – | – | – | – | – | 0.45 | 243 | 109
B13 | – | – | – | – | – | 0.54 | 193 | 105
B14 | – | – | 59.8 % of HeCon Ab (= 100) | 218 % of HeCon Ab (= 100) | 0.27 | – | – | –
B15 | – | – | 50.9 % of HeCon Ab (= 100) | 70.4 % of HeCon Ab (= 100) | 0.72 | – | – | –
B16 | – | – | 84.6 % of HeCon Ab (= 100) | 204 % of HeCon Ab (= 100) | 0.41 | – | – | –

Binder | He/Con_2b [1] [control = 100] | He/Con_1a [2] [control = 100] | He/Con_2aH (relative binding activity) [3] | He/Con_2b (relative binding activity) [4] | He_2aH/2b (IIaH/IIb) [5] [ratio] | He_1a/2b (Ia/IIb) [6] | He/Con_2b [7] [control = 100] | He/Con_1a [8] [control = 100]
B17 | – | – | – | – | – | 0.66 | 159 | 106
B18 | – | – | – | – | – | 0.42 | 236 | 98.1
B19 | – | – | – | – | – | 0.47 | 218 | 102
B20 | 111 | 94.5 | – | – | – | – | – | –
B21 | – | – | – | – | – | 0.57 | 177 | 100
B22 | – | – | – | – | – | 0.52 | 192 | 100
B23 | – | – | – | – | – | 0.65 | 152 | 99.3
B24 | – | – | – | – | – | 0.51 | 210 | 106
B25 | – | – | – | – | – | 0.28 | 379 | 106
B26 | – | – | 87.5 % of HeCon Ab (= 100) | 221 % of HeCon Ab (= 100) | 0.4 | – | – | –
B27 | – | – | – | – | – | 0.52 | 200 | 104
B28 | 101 | 88.8 | – | – | – | – | – | –
B29 | – | – | – | – | – | 0.55 | 192 | 106
B30 | – | – | – | – | – | 0.73 | 139 | 102
B31 | – | – | – | – | – | 0.69 | 148 | 103
B32 | – | – | – | – | – | 0.54 | 193 | 103
